Results published in patent publication US20260092093A1 (TJ BIOPHARMA SHANGHAI, published 2026).
Residue numbers refer to the chain shown, from its start.

T1: hIL-18 receptor (hIL-18Rα and hIL-18Rβ) (human, UniProt Q13478 19-541; O95256 20-599)
T1 sequence (looked up) 1: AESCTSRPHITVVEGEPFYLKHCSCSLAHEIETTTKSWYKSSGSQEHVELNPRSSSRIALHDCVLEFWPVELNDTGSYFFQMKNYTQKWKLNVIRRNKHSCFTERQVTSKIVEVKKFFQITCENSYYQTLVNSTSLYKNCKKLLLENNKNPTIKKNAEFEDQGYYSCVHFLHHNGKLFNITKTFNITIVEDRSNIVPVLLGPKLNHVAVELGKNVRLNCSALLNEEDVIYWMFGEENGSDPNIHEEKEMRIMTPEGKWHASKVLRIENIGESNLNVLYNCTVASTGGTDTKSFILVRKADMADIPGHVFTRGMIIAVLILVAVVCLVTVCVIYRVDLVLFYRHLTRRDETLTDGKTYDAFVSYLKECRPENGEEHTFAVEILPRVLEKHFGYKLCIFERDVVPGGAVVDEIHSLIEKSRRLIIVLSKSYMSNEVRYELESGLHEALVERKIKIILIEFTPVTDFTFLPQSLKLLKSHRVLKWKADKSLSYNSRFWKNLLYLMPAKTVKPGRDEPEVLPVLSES
T1 sequence (looked up) 2: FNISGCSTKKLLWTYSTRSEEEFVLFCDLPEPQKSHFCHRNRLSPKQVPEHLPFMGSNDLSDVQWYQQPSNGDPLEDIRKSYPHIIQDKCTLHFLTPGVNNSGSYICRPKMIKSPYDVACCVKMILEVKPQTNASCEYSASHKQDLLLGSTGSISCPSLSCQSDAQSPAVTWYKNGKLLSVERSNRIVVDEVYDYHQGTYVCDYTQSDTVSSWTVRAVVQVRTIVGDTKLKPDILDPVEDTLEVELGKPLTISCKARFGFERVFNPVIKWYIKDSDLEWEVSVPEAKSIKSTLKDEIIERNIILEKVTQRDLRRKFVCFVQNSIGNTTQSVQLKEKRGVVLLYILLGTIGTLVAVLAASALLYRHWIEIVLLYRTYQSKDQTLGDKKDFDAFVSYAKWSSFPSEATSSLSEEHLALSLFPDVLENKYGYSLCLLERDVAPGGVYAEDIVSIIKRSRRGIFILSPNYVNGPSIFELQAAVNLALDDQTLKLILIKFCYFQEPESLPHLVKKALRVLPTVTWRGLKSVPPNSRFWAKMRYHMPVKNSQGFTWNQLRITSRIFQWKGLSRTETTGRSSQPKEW

T2: hIL-18BP-hFc (human, UniProt O95998 31-194, limits assumed)
T2 sequence (looked up): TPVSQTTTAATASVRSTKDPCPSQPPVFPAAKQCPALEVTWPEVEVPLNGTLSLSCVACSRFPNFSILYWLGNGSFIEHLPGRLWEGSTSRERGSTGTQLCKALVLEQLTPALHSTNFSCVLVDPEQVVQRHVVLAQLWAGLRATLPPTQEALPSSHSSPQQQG

B1: IL-18 variant polypeptide LM5 (ligand)
chain: YFGKLRSKLSVIRNLNDQVLFIDQGNRPLFEDMTDSDCRDNAPRTIFIISMYKWSSQRGMAVTISVKCEKISTLSCENKIISFKEMNPPDNIKDTKSDIIFFQRSVPGHDNKMQFESSSYEGYFLACEKERDLFKLILKKEDELGDRSIMFTVQNED
B2: IL-18 variant polypeptide M25 (ligand)
chain: B1 chain with G3P, W54L, S56T, Q57T, N91R
B3: IL-18 variant polypeptide MM6 (ligand)
chain: B1 chain with G3A, R6Y, W54R, Q57L, N91A
B4: IL-18 variant polypeptide M3 (ligand)
chain: B1 chain with G3P, R6K, S56H, Q57V, N91A, R104Y
B5: IL-18 variant polypeptide MM4 (ligand)
chain: B1 chain with G3P, W54L, S56T, Q57I, N91G
B6: IL-18 variant polypeptide M18 (ligand)
chain: B1 chain with G3P, W54S, S56R, Q57R, N91G, R104S
B7: IL-18 variant polypeptide MM1 (ligand)
chain: B1 chain with G3P, R6K, W54L, S56T, N91V
B8: IL-18 variant polypeptide M19 (ligand)
chain: B1 chain with G3P, R6K, W54H, S56E, N91A
B9: IL-18 variant polypeptide WM2 (ligand)
chain: B1 chain with G3P, W54D, S56Q, Q57P, K96E
B10: IL-18 variant polypeptide M6 (ligand)
chain: B1 chain with G3P, S56T, Q57P, N91V, R104T
B11: IL-18 variant polypeptide M22 (ligand)
chain: B1 chain with G3P, W54Y, S56R, Q57G, N91K, R104S
B12: IL-18 variant polypeptide M7 (ligand)
chain: B1 chain with G3P, W54H, S56T, Q57A, N91A
B13: IL-18 variant polypeptide M10 (ligand)
chain: B1 chain with G3P, W54Q, S56L, Q57W, N91S
B14: IL-18 variant polypeptide M5 (ligand)
chain: B1 chain with G3E, R6T, S56P, Q57W, N91V, R104T, N155K
B15: IL-18 variant polypeptide MM2 (ligand)
chain: B1 chain with G3A, R6Y, W54R, Q57L, N91G
B16: IL-18 variant polypeptide M20 (ligand)
chain: B1 chain with G3P, W54S, S56R, Q57S, N91G, R104S
B17: IL-18 variant polypeptide WM6 (ligand)
chain: B1 chain with G3D, R6K, W54D, S56Q, Q57P, N91S
B18: IL-18 variant polypeptide M23 (ligand)
chain: B1 chain with G3P, W54Y, S56T, Q57R
B19: IL-18 variant polypeptide M16 (ligand)
chain: B1 chain with G3P, W54S, S56R, Q57N, N91G, R104S
B20: IL-18 variant polypeptide M1 (ligand)
chain: B1 chain with G3P, R6K, W54H, S56D, Q57R, N91V, R104V
B21: IL-18 variant polypeptide M26 (ligand)
chain: B1 chain with G3P, W54H, S56D, Q57K, N91V, R104Y
B22: IL-18 variant polypeptide M4 (ligand)
chain: B1 chain with G3P, R6K, S56G, Q57V, N91V, R104F
B23: IL-18 variant polypeptide M9 (ligand)
chain: B1 chain with G3P, S56R, Q57A, N91S, R104S
B24: IL-18 variant polypeptide M14 (ligand)
chain: B1 chain with G3N, R6K, W54P, Q57S, N91R, R104A
B25: IL-18 variant polypeptide M2 (ligand)
chain: B1 chain with G3S, R6K, S56P, Q57D, N91G, R104T

These binders were tested against T1, hIL-18 receptor (hIL-18Rα and hIL-18Rβ) (assay: cell-based or functional assay).

Row | Binder | EC50 (nM), hIL-18 reporter assay [nM]
1 | B1 | 0.13
2 | B2 | 0.58
3 | B3 | 1
4 | B4 | 0.24
5 | B5 | 0.13
6 | B6 | 0.58
7 | B7 | 0.97
8 | B8 | 0.66
9 | B9 | 10.7
10 | B10 | 0.18
11 | B11 | 7.2
12 | B12 | 0.15
13 | B13 | 0.29
14 | B14 | 0.22
15 | B15 | 0.93
16 | B16 | 2.2
17 | B17 | 0.06
18 | B18 | 0.8
19 | B19 | 0.29
20 | B20 | 1.45
21 | B21 | 0.068
22 | B22 | 0.018
23 | B23 | 0.43
24 | B24 | 0.04
25 | B25 | 0.27

These binders were tested against T2, hIL-18BP-hFc (assay: cell-based or functional assay).

Row | Binder | EC50 (nM) in the Presence of 1 µg/mL hIL-18BP-hFc, hIL-18 reporter assay [nM] | EC50 Fold Change (+BP/-BP), hIL-18 reporter assay [fold]
26 | B1 | 0.12 | 0.92
27 | B2 | 1.15 | 1.98
28 | B3 | 1.5 | 1.5
29 | B4 | 0.37 | 1.54
30 | B5 | 0.43 | 3.31
31 | B6 | 0.56 | 0.97
32 | B7 | 0.81 | 0.84
33 | B8 | 0.31 | 0.47
34 | B9 | 14.2 | 1.32
35 | B10 | 0.14 | 0.78
36 | B11 | 7.5 | 1.04
37 | B12 | 0.25 | 1.67
38 | B13 | 0.17 | 0.59
39 | B14 | 0.21 | 0.95
40 | B15 | 2.24 | 2.41
41 | B16 | 0.5 | 0.23
42 | B17 | 0.74 | 12.3
43 | B18 | 1.4 | 1.75
44 | B19 | 0.34 | 1.17
45 | B20 | 3.45 | 2.38
46 | B21 | 0.094 | 1.38
47 | B22 | 0.025 | 1.39
48 | B23 | 0.33 | 0.77
49 | B24 | 0.03 | 0.75
50 | B25 | 0.19 | 0.7

Target: T2, hIL-18BP-hFc
Assay: cell-based or functional assay
Remark: another data set of the same source

Row | Binder | EC50 (nM) in the Presence of 1 µg/mL hIL-18BP-hFc, PBMC assay (hIFNγ release) [nM]
51 | B17 | ~0.04
